Experimental data as given in the domain aggregation screens of Martell et al. (2025).

Test: soluble fraction after stress (log2 fold change); higher = more stays soluble; pooled small domains, quantitative proteomics
Settings: stress: 75 degC
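Also: 20 min heating vs room temperature control held 20 min.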

Sequence | soluble fraction (log2)
HMFQNYTDAVVVASKTFFYNMPDESTRKSAYLIQGDRIMVEKSQRNFVYVTFTNEASGRTTTGWLKSDDLE | -2.65
HMKTRYPNVYQDEKGKFFYQIFIGTDTNGRKKLKKGRRDALGHPFSSAYQASKEAKRVQALYANVS | -2.02
HMGKAYMVPDVKNKSVNQAQLLLADKHMNGVVVDSSYVKELPAGIVLDQTPVGGMKVKEGRTVYLTINSD | 0.156
HMLPSELLAQQRIVVQPGHNLWRIARATYGRGARYTVIYQANREQIADPNRIFPGQVFALPAA | -0.102
HMNLYERFPIHELWKETFNETLDEEEHITFITSEFKPENIVLGQGFIAAPSKKDAVDWLKVIRTVLIFYDS | -2.37
HMSRGTRIDPNWQPSPEDRALARAEGFSDPEIDREALQFRDYWLGASGSNAVKLDWSATWRNWVRRAATNF | -0.396
HMGWEDLVGKTAVVKVALAPVGMVFFRGEFWSAISETGRIEPGEEVTISRIDGLKLYVTKKRIM | -3.89
HMNQEQQSAVMSALKATLPDLEAALEARQFKESKQLLKTAQNQFQQLDGRNRRGFQARIQLLAGQFRELS | -0.179
HMSAPEGWMNRGDLRDNFRIQYPVTDRIIASYRESHPEWFGTYLSKTSKSLEYFHPDLVAKVREAAN | -0.0761
HMSHQIIIVAVELDPSTERIVYYLSKNGISINVLFFKVFQHGDEQFLSRVWLIDPSETQTNAALA | -0.726
HMRSVTLQTDREGDILYVDGKQIGVSPQRLELSYGVHTIRAERGEQHTEKELEVTETGGETVVTLGFG | 0.375
HMGVRVEVDAVTPPGAMASGSVVFSDGESKKWSVDQFGRLAMTGGAPDYKPSDQDVMEFQQQLEQSL | 0.125
HMTSHYTVLGVKETDTIEMIRTHYRKLILQFHPDKNQHLTEEERKKLEVKVLQIREAYEKIKKEK | -0.433
HMAEMRYLDQIYEVNVPLPDLSLEDGDLLARWAVNFHQRYEELFSYRQSDQEIRLVTLRVTVLGELP | -0.65
HMTKASEELYFRLKEELGTGVIVEHKKYGEGVVTQLDDRLVHIMFQDDTLRMMDLKILANAGLLKVK | -1.57
HMNITHEINVKSKSKIDFLENNKNLAQFFLTKNPNQFNYNLVFSDKSELNIIKEKIESHKDIEDIDIRYG | -0.0863
HMGKTIIQLATDYLIKNMQPKSLHDIESYVLTRKKIKKSSIGAILLSKPNIFGRTEDGLFGLRIWNNFQYT | -1.37
HMDSLSGQQGRVLEEINGFLQTGKVLLNGMEWSAVSKQPEDILPVDTEVVVVRVEGAHLVVKKA | -0.286
HMFYNSSDNAYKILEINKSATVDEIKAAYRKMAKKYHPDKVIHLGQEHQKGAEEKFRQVQEAYEELQKERG | 0.19
HMTKSIDFDFREDGVYIKADKDVTIVDIVTKIDLRRIQSVDLTKIKQMLEIGSLDNWIKIAEPQMEK | -2
HMPVEFVKISIKPGHPWENQFVRDIVSLPDLLMVLILRGEERIIPNGNTKILVGDKIVLSALSPG | -2.2
HMGQVSEAGELEVAADRVIAANPEAVTKYKSGNENILQFLVGQMMKETKGAANPQVAAEILRKKIV | 0.065
HMQPDDELVRLLLIKIFNDKQLKVNPAVINYLLRRIDRSFESINNFVKKIDEFSLEKGRKITVNLVSGFF | -0.777
HMSSDEAEYKLLLGQEGVAKSPLRPSGVVDFSGRRLDVQTLGDFIESGETVVVKQVNGHRVLVERK | 0.135
HMLPLPRFASLDSSEANLRAGPGKDYPILWVYQRKGLPVEIIQEFDTWRRIRDRDGTVGWVQQNLL | -0.351
HMAQSEDLMVMAQRILGGPEAQSFFQAEATRQGLAGFLPEPIPDFLQRLERKLSGSVGSATAHAMVAQTMG | 0.0569

Sequence | soluble fraction (log2)
HMGHEISLNNSRFLKLLNKTKISISNDDTRHYLNGIFLHLTEAHGRQFLTGVATDSHRLSSSSLEID | -0.206
HMFTLDDLQATYDIFERAEQNSDAMLAFQKVITAEGLDFDLTSPQGIVDFFKGAAPTEIYDLYEAS | -0.547
HMNMMESNLFAVYDNDDIVKTLRQGAMEIDSLIRLMGKSSAEVLEKLTTMELQGIITRSGNIIALNN | -0.427
HMEQAAQPQTGFDPRRLKAGDAVHLLALDQRGVLLEDPKPGAESAPVSVGVAGVRVVVPLREMEALPAG | 0.0201
HMGLPPIATGVNDNMSFSQAFAAARAEVGAGGAFEWHGRVYGTYYKNEWDGMSAQERHDFEIAAIRGS | -0.0369
HMENKVLVITEEEKGKRLDVYLAAALEVSRSYAQQLIQGEDVVVNDKQVKANYRLSEGDVVQVQLD | 1.01
HMQTGYHVRITASTLNVRRDHSASSAVATQVRRGEVYTIVDEYNNGGTLWGKLKSGAGWIALKYTQS | -3.39
HMNARSTSYSDFIARVDKDEVASVRLDGETVTYQAADGTTYTTVKPESDPIAERLIAKGIEVNVVRQ | -0.348
HMNAVYAEERRAYILAALEKRGTVHSYELAEQMGVSRETIRRDIMELSNRGLLVKTHGGAIST | -1.45
HMADRLITLSEVASLLRVSRHTVQAWISPSSPNHRPEFAIMARHAGRRTVFIEAEVTAWLDQRRG | -2.14
HMDEKSGWLHLAPHEGALRAALYAEHAVQEERTAPDGSQWLRLVLREKHYHQIQSKYNRRLTLHTQPDPS | -2.58
HMQAATGVVTASVLNIRQGPGTNYTKVGSLLKGAQVEIVGQNGAWSKIRLKSGITGWVNSSYLKTST | -1.84
HMGIERTNADTSFSVNVYGKELIITSNKPLVVNIYAIDGTLVRTEQVTIGVNTVSGLPSGIYVVGQQKVVI | -1.1
HMGVHSVVPDIKNKHYGEAKAILAANGLSIEISDSIYDRSVAPGTVVESWPKAGAIVKGDRAVFVTLTAF | -1.61
HMVAGHLQTKKGYYYIVLNMRTDTGARKTKWIATGIPEGGKKNLKQAEELLAKTRYTYEDMVI | -2.52
HMGRLNMRRIRDVLRLKFGQGLSERQVAASLGLSKTSVGTYLHRARQAGLTWPLPQGLDDDGLELLLFP | -1.69
HMEFDSLINYEVKKKETLFSISKKFKIEINDLLSFNTELKNNKLKKNSIIIIPLKKKIVESQNFEKQKIID | -1.49
HMALWFDEWKKYQDTIASADLLPDKAERDALIAQAEDRFNYWMDIYPRSASLNHSFDDLYEEHRRKIE | -1.01
HMPNQLLELVEMEIRDLLNEYEFPGDDTPIIQGSALKALEDPMGPWGDKIMDLMDAVDSYIPDPE | -0.686
HMRNTPQRRHAILALLSEQGEVSVDALAKRFSTSEVTIRKDLAAMESHGLLLRRYGGAVPMPQELI | -1.63
HMSEPFDMAVPLTSGGRRLDQVLAELLPQHSRNRLQGWIRDGLLTLDGVTVTEPKRKLAGGEQLALLLP | -0.169
HMNSFKIYPNPSSREVVRFNQAQDVKVYDTLGKLILSAKNTSAIDTKSFNTGIYFIKTANGLTKKLIV | -0.886
HMEFENIEQRKQYWSDLYRELKAGQDAYAKELKKGTEGYTQDELDILKEFTDEAKKQMEAAGVEATDEFAS | -0.0427
HMNSSLLGKRIKSLREDHDLTQKELSLMIGLTPKMISFYENNQRTPPLDILLKLAKIFEVSVDYLIGYA | -0.615
HMYSMSAPMPGVILEIKVAPGDQVNKGDVVMVLEAMKMKNDLHAARTGTVESIDINSGEQVKYGQVLLRFV | -0.225
HMEAEPRLLDLPPGTRAGRLDKVLAQLLPEHSRSRLQGWIERGGVLVNGKEASVRQVVGPGDQLTVWEEAA | -0.0507

Sequence | soluble fraction (log2)
HMAGSTAASKHALALLNTARHSIRDGNLTSAAAEIKQALATSQEQIVITEARSLMTAMEARATTRRATVLQ | -0.41
HMIDQSVVVQYLSKLTNTPYLKTREITMGEPYMQFERGEIKFQEYVEDIRALLPGGDRIDADRLRDIWMNS | -1.1
HMRTSPGADYEKTYYTIQSGDNLGAIAEKMGVSVADLKDWNDISGTKIYAGKKLVIYVKKGST | -0.351
HMHIMINPDQLSPEQIQSIRTWAEEGLDLNAIQKRLHEDLNIKLTFMDTRFLLQDLDIRIRQPEPEPEAEQ | -0.208
HMSPFAHHLHELRMRHGIRQNELAELIGYDQTYISALEVGLKGPPTPEFVDKLVEGLALSRTEEAALRSAA | -0.483
HMWDRFGELDSAEEINRIAAAELREGDIDALKVLAEENGLDKDDVEDYIDRLIDELTTPELAAIGKLDV | 0.275
HMRPEVTEHLKTADAILHGGDINRQSIVDELRQYAPLYIVRGNNDKDWAEAIPHDLTVTLGGVTFFMVHNR | -0.0851
HMEDGEALARAVASLPGKYREVLFLKYSHGYSVDEIALILSMSKENVKKTIQRARKKLEQLLESE | -1.3
HMDHKTKLQEVLQKSGDVFIEYRLIKEEGPAHERIFWIEVYVDDQLIGTGQGKSKKLAEQAAAENALAALE | -1.21
HMESSYKGFILDIETRQFSPTLIQRRGIAINPSGIVETTTEFSFATQEKVLIEDLKLIIDELDLRADY | -3.69
HMQETIDVAALRVGMFVHLDLGWLAHPFPLSSFRISSEDQISTIRALGLKRVRWSSQHSELG | -1.29
HMGTSFKITFYKDAFQVDDGPIRMLNDPANQKFVDEVSQGYAPKELIGQGGKAPEIDIIDKRSENAPT | 0.156
HMIKISDYLSEEDLNFIKEMEKIYPYFDFDSEGNLILTKSIDELKDKYGFDEAFVSRLDTVLNSR | 0.108
HMRETELPVTIISAGRILAENLHLAGRDGGWLEAELKRRSLTAEQVLLLTVDAAGTVYLVRKEDL | -2.1
HMYAGTWTTESGQWKYRQDDGTYAKGWLQDTDGRWYYFDANGRMLSNTATPDGYQVGEDGAWVNH | -0.338
HMNRLEFLQGLKAELEGRVPHSIIQENLRYYDSYISDEAAKGQSEEDVVESLGGPRIIARTIVDAA | 0.267
HMDEVLDQFVRGQIYGYIRANPGDIYSSIRDNLGLKNGVTTYHLDVLAREEYVYSEIDGTNRRFYPSGWEE | -2.77
HMKVSKNKIVKGMGFHHVALKAVDFDASFKFYTEGLGMKFYTSWGEGNGKIAMLDLGDGGILELFA | 0.0409
HMEFLLAIQPFVLLTDHANLTFLREQTDSMMKRIQINISGFEIEFRYVPGLTNILPDKMSRV | 0.146
HMGNNSIDIKDVIYNLVEISQLQAFDIVKHFKTWENLVNKPDELDTVIDGDSDIVDRIKYKIKSLS | 0.344
HMPAFGALTLRQRDLVELIAQGLDNSQIAARLGLAEKTVRNHITMIFNKLEMENRSQVIVRARESGFGAVR | -1.87
HMKAAQDQDQAATLLQKATGVNQDQAKLAATVLFKEQSVTPIRQAIASGDYYQAYQDAKSLQQQ | 0.221
HMTDLDVAVTMTVALEEAVNGATRRVRLPNGKELNVKIPAGVAAGQQIRLKGQGETAPGHRPGDVLITVNI | -0.712
HMEVAASEQRDNLWALARRVLSGEQYDVLYLRYVEDFSVAQIADVVGKTQTHVKVLLFRGRNNLGSRLRS | 0.0441
